According to US20220356217A1:

Biological target: human integrin αIIbβ3 on cells (K562 cells stably expressing αIIbβ3; human platelets) (human) (UniProt P08514)
Assay: FACS; displacement of Alexa647-labeled soluble fibrinogen from activated αIIbβ3-K562 cells

## eptifibatide (peptide)
  IC50: 73.2 nM
